We go through two molecules from US20250163181A1 (SAINT LOUIS UNIVERSITY, published 2025).

The target in test [1] is T1, kringle-1 of human prothrombin (amino acids 44-155) (human, UniProt P00734 87-198).
T1 construct: Numbers count on the mature protein
Description: ELISA, antigen immobilised, Hill fit. On the technique in general: In an ELISA, binding on a coated surface is turned into a signal by an enzyme label.

The target in test [2] is T2, human prothrombin wild-type (human, UniProt P00734 44-622).
T2 construct: range 1-579; Residue numbers count on the mature protein, not on the precursor entry; In some runs 200 uM argatroban was added to force the open form; also called coagulation factor II; PT
Description: ELISA, antigen immobilised, Hill fit.

Test [3] deals with T3, prothrombin variant S91A/Y93A (human, UniProt P00734 44-622, S91A; Y93A).
T3 construct: range 1-579; Recombinant, expressed in Expi293 cells in the presence of vitamin K. Positions 91 and 93 count on the mature protein; also called ProTS91A/Y93A
Nature of the test: ELISA, antigen immobilised, Hill fit.

For test [4], the target named is T4, kringle-2 of human prothrombin (amino acids 156-271) (human, UniProt P00734 199-314).
T4 construct: range 156-271; Numbers count on the mature protein
Description: ELISA, immobilised antigen, 5B10 titrated, OD at 450 nm [panel B].

Test [5] has as its target T3, prothrombin variant S91A/Y93A. Description: SPR, POmAb immobilised. Background: Surface plasmon resonance follows binding to a sensor surface in real time, without labels.
The target of test [6] is T1, kringle-1 of human prothrombin (amino …). Description: SPR, calculated from Kd.
Test [7] concerns the target T2, human prothrombin wild-type. Nature of the test: SPR, calculated from Kd.
Test [8] deals with T1, kringle-1 of human prothrombin (amino …). Nature of the test: SPR, second set, calculated from Kd.
In test [9] the target is T2, human prothrombin wild-type. Description: SPR, second set, calculated from Kd.
In test [10] the target is T3, prothrombin variant S91A/Y93A. Nature of the test: SPR, second set, calculated from Kd.
Test [11] concerns the target T1, kringle-1 of human prothrombin (amino …). Nature of the test: SPR, POmAb immobilised on CM5, 1:1 model, 25 C.
In test [12] the target is T2, human prothrombin wild-type. Description: SPR, POmAb immobilised on CM5, 1:1 model, 25 C.
For test [13], the target named is T1, kringle-1 of human prothrombin (amino …). Description: SPR, POmAb immobilised, second set, HEPES buffer, 25 C.
In test [14] the target is T2, human prothrombin wild-type. The description is as above.
In test [15] the target is T3, prothrombin variant S91A/Y93A. The description is as above.
The target in test [16] is T2, human prothrombin wild-type. Description: SPR, calculated from Kd; prothrombin with 200 µM argatroban.
Test [17] shares this target. Nature of the test: SPR, second set, calculated from Kd; prothrombin with argatroban.
For test [18] the target is unchanged. Description: SPR, POmAb immobilised; prothrombin with 200 µM argatroban (open form).
Test [19] addresses T3, prothrombin variant S91A/Y93A. Nature of the test: SPR, calculated from Kd; SPR, first set, Tris pH 7.4; ΔG calculated from Kd.
Test [20] addresses T2, human prothrombin wild-type. Description: SPR, POmAb immobilised, second set; prothrombin with argatroban (open form).
Test [21] concerns the target T4, kringle-2 of human prothrombin (amino …). Nature of the test: ELISA, antigen coated on the plate, POmAb detected with anti-mouse IgG (gamma)-HRP and TMB, OD at 450 nm [panel C].
Test [22] deals with plasminogen (UniProt P00747 20-810, limits assumed). Described as above.
Test [23] deals with tissue plasminogen activator (UniProt P00750 36-562). The test is described as above.
Test [24] deals with T5, factor XII (UniProt P00748 20-615).
T5 construct: also called FXII
T5 sequence (looked up): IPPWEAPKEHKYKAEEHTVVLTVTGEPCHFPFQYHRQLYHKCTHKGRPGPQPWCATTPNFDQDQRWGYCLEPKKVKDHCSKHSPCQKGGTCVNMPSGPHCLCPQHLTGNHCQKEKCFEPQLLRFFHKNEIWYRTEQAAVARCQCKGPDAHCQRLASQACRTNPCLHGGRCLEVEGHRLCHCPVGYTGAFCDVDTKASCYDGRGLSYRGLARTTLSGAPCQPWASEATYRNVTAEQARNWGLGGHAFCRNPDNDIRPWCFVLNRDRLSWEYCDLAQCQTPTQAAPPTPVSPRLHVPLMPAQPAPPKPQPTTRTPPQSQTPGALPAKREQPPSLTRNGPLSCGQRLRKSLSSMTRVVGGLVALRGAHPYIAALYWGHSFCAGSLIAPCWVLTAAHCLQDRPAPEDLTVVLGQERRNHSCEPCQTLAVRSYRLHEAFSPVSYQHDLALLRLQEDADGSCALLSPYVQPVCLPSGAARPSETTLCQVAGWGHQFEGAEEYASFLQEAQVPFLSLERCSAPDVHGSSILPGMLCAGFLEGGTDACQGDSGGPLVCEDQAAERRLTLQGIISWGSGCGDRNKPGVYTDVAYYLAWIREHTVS
Described as above.

Test [25] addresses T6, β2-glycoprotein I (UniProt P02749 20-345).
T6 construct: also called B2-glycoprotein I; β2GPI
T6 sequence (looked up): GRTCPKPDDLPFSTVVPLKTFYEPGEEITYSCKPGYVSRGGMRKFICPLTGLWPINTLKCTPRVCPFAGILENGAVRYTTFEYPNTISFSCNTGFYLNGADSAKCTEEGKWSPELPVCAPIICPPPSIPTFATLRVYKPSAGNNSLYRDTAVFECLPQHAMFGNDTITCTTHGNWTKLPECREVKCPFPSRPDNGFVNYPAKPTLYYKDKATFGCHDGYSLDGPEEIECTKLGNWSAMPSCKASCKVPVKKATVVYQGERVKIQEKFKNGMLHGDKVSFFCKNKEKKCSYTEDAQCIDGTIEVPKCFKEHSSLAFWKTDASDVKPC
Described as above.

Test [26] addresses T3, prothrombin variant S91A/Y93A. Description: SPR, POmAb immobilised on CM5, 1:1 model, 25 C; SPR, first set, 20 mM Tris pH 7.4, 25 C: weak binding with fast dissociation.
For test [27] the target is unchanged. Nature of the test: SPR, POmAb immobilised, second set, HEPES buffer, 25 C; SPR, second set, 20 mM HEPES pH 7.4, 25 C: weak binding with fast dissociation.

tissue plasminogen activator, sequence (P00750 36-562): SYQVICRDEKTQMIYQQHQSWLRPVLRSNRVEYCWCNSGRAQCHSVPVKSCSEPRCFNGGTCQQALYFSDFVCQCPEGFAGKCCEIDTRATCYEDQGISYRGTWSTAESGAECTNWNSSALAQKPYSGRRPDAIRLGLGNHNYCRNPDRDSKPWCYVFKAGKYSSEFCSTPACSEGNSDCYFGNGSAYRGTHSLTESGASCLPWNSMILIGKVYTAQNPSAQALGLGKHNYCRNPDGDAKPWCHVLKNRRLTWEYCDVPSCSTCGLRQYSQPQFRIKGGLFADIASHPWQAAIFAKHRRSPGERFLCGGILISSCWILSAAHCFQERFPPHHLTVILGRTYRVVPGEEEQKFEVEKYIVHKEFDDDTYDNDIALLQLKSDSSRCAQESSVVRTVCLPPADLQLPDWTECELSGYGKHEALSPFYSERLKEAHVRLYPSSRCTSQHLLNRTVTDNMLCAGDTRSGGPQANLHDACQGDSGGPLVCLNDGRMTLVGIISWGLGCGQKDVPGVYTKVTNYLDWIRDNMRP
plasminogen, sequence (P00747 20-810 limits assumed): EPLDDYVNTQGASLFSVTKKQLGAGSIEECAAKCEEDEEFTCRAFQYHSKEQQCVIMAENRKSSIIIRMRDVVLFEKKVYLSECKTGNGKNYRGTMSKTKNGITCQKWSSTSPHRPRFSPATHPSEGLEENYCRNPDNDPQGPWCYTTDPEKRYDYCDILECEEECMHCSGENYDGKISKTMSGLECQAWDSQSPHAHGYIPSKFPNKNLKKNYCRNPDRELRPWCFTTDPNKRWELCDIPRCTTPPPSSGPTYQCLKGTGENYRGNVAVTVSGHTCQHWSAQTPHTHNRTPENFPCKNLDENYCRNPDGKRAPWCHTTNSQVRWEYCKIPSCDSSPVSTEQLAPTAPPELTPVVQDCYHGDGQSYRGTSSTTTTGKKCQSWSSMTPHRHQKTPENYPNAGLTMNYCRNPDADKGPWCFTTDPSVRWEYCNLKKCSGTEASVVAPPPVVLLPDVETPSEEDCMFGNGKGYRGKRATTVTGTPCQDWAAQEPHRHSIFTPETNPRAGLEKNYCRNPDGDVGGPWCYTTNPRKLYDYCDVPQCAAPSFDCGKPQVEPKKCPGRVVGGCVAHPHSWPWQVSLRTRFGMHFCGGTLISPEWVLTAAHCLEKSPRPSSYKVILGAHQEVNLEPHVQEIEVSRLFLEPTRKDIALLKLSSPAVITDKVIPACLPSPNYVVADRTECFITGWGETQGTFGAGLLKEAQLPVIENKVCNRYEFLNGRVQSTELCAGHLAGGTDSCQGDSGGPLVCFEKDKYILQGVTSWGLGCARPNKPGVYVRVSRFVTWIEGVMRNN

B1: 5B10 monoclonal antibody (antibody, V domains shown)
VH: QIQLVQSGPELKKPGETVKISCKASGYTFTNYGMNWVKQAPGKGLKWMGWINTYTGEPTYADDFKGRFAFSLETSASTAYLQINNLKNEDMATYFCARGGYYYGNNYEAYWGQGTLVTVSA
VL: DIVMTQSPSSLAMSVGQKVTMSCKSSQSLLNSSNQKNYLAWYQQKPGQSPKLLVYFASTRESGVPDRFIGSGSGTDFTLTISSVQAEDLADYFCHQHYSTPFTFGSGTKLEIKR
notes: also called clone 5B10
The term EC50 denotes the midpoint of the concentration-response curve. For B1, the EC50 in test [1] was 0.038 µg/mL; in test [2], 0.031 µg/mL; in test [3] it was 0.038 µg/mL. Further, the binding result in test [4] was “no binding”.

B2: POmAb (Prothrombin Open monoclonal Antibody) (antibody, mouse IgG1, kappa, V domains shown)
VH: EVHLVESGGGLVKPGGSLKLSCAASGFTFSSYYMYWVRQTPEKRLEWVATISNGGIYTYYLDSVRGRFTISRDNAKNILYLQMSGLSSADSAIYYCTRDGERQGAMDYWGQGTSVTVSS
VL: QIVLTQSPAIMSVSLGERVTMTCIVSSSVSSTYLHWYQQKPGSSPKLWIYSSSNLASGVPTRFSGSGSGTSHSLTISSMEAEDAAAYYCQLYRRSPLTFGAGTKLELKR
notes: also called POmAb IgG; IgG POmAb
What is called Kd is the constant that tells how readily two partners part at equilibrium. Lower therefore signals a tighter complex. In general, koff refers to the first-order rate constant of dissociation. A high value points to fast dissociation. Usually kon stands for the second-order rate constant of association. For B2, in test [5], the “fold change of dissociation rate against wild-type prothrombin” value is around 1000 fold. Further, the ΔG in [6] was -11.5 kcal/mol; in [7], -11.7 kcal/mol; in test [8], -11.3 kcal/mol; in [9], -10.5 kcal/mol; in test [10], -8.2 kcal/mol; in [16], -11.6 kcal/mol. For the same molecule, the ΔG was -11.7 kcal/mol in [17] and -6.7 kcal/mol in test [19]. The figures for the EC50 in test [1], in test [2] and in [3] were 0.02 µg/mL, 0.013 µg/mL and 0.301 µg/mL, respectively. The Kd in test [11] amounted to 3.7 nM; in [12] it was 2.5 nM; in test [13], 5.33 nM; in [14], 19.2 nM; in test [15], 1010 nM; in test [18], 2.98 nM. For the same molecule, the Kd was found to be 2.59 nM in [20] and 12000 nM in test [26]. Also, the koff in test [11] was found to be 0.00027 s⁻¹; in [12], 0.00013 s⁻¹; in test [13], 0.000314 s⁻¹; in test [14], 0.000122 s⁻¹; in test [18], 0.00012 s⁻¹; in test [20], 9.49e-05 s⁻¹. Besides, the koff in [26] came out at 0.29 s⁻¹; in [27] it was 0.0702 s⁻¹. Moreover, the kon in test [11] was determined as 69100 M⁻¹ s⁻¹; in [12], 52000 M⁻¹ s⁻¹; in test [13], 58900 M⁻¹ s⁻¹; in test [14], 6350 M⁻¹ s⁻¹; in test [18], 40300 M⁻¹ s⁻¹; in test [20], 36600 M⁻¹ s⁻¹. The results for the kon in test [26] and in test [27] were 24200 M⁻¹ s⁻¹ and 69600 M⁻¹ s⁻¹, respectively. The binding result in test [21] is “no binding”; in [22] it was “no binding (tested: 50 µg/ml)”; in test [23] it was “no binding (tested: 50 µg/ml)”; in test [24], “no binding (tested: 50 µg/ml)”; in test [25], “no binding (tested: 50 µg/ml)”.
